Earlier results on one molecule are cited in article PMC4319847 (PLoS ONE, 2015).

This series relates to Yeast importin-α. The note with it: in the crystal (1BK6) and in solution by DLS; ref [13]. The text has this:
The open homodimerization probably attributes to H119 at the top of the loop; this loop corresponds to the K ...

B1: Yeast importin-α: Yeast importin-α (1BK6), first crystal structure of an importin-α shown to dimerize (protein, UniProt Q02821 1-542, looked up)
Importin subunit alpha: MDNGTDSSTSKFVPEYRRTNFKNKGRFSADELRRRRDTQQVELRKAKRDEALAKRRNFIPPTDGADSDEEDESSVSADQQFYSQLQQELPQMTQQLNSDDMQEQLSATVKFRQILSREHRPPIDVVIQAGVVPRLVEFMRENQPEMLQLEAAWALTNIASGTSAQTKVVVDADAVPLFIQLLYTGSVEVKEQAIWALGNVAGDSTDYRDYVLQCNAMEPILGLFNSNKPSLIRTATWTLSNLCRGKKPQPDWSVVSQALPTLAKLIYSMDTETLVDACWAISYLSDGPQEAIQAVIDVRIPKRLVELLSHESTLVQTPALRAVGNIVTGNDLQTQVVINAGVLPALRLLLSSPKENIKKEACWTISNITAGNTEQIQAVIDANLIPPLVKLLEVAEYKTKKEACWAISNASSGGLQRPDIIRYLVSQGCIKPLCDLLEIADNRIIEVTLDALENILKMGEADKEARGLNINENADFIEKAGGMEKIFNCQQNENDKIYEKAYKIIETYFGEEEDAVDETMAPQNAGNTFGFGSNVNQQFNFN
Turning to B1, the dimerization result is given as “dimerize not only in the crystal but also in solution”.
